Assay results published in paper PMC2592534.

Experiments:
Assay in all cases: SPR
rat ficolin-A M57E (rat) = molecular target: rat ficolin-A M57E (rat)
rat ficolin-A M57S (rat) = molecular target: rat ficolin-A M57S (rat)
rat ficolin-A O54A (rat) = rat ficolin-A O54A (rat) (UniProt Q9WTS8)
rat ficolin-A P59A (rat) = rat ficolin-A P59A (rat) (UniProt Q9WTS8)
rat ficolin-A P59A (rat), sequence (Q9WTS8 18-335 P76A): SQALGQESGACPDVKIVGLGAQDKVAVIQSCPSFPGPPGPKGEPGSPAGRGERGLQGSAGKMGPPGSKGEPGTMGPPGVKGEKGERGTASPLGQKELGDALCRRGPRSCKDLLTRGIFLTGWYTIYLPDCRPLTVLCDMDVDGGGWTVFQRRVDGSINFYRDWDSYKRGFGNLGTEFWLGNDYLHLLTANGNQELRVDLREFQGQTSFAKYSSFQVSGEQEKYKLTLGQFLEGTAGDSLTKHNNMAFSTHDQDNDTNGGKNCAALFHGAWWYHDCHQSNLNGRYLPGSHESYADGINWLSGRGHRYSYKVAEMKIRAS

rat MASP-2A (catalytically inactive MBL-associated serine protease-2, Ser613 to Ala), sequence (Q9JJS8 20-685 S632A): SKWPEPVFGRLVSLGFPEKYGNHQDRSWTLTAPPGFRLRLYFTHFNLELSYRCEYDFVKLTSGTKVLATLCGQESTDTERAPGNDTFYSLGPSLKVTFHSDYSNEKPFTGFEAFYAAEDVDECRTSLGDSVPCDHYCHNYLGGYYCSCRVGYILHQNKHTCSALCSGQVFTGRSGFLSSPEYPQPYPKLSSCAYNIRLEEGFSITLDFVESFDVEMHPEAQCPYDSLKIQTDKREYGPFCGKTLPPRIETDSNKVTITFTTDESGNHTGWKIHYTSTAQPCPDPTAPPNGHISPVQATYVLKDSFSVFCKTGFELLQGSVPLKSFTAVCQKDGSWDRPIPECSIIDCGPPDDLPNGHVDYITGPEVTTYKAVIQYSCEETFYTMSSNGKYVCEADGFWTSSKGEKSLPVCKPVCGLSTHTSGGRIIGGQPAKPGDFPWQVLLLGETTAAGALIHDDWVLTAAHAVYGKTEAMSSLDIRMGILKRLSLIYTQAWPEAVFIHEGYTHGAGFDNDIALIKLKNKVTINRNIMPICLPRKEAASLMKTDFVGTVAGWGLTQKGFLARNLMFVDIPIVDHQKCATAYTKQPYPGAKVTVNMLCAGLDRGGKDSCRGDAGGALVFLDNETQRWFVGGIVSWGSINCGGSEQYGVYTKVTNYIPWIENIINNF
rat ficolin-A O54A (rat), sequence (Q9WTS8 18-335 P54A): as the sequence (Q9WTS8 18-335 P76A) above, with P37A, A59P counted along it

KD1 (apparent, two-complex, parallel reaction model) (rat ficolin-A M57E (rat)): 49 nM
KD2 (apparent, two-complex, parallel reaction model) (rat ficolin-A M57E (rat)): 3.23 µM
koff of complex 2 (two-complex, parallel reaction model) (rat ficolin-A M57E (rat)): 0.0094 s⁻¹
KD1 (apparent, two-complex, parallel reaction model) (rat ficolin-A M57S (rat)): 11.6 nM
KD2 (apparent, two-complex, parallel reaction model) (rat ficolin-A M57S (rat)): 133 nM
koff of complex 2 (two-complex, parallel reaction model) (rat ficolin-A M57S (rat)): 0.0048 s⁻¹
kon of complex 2 (two-complex, parallel reaction model) (rat ficolin-A M57S (rat)): 37000 M⁻¹ s⁻¹
KD2 (apparent, two-complex, parallel reaction model) (rat ficolin-A O54A (rat)): 153 nM
KD1 (apparent, two-complex, parallel reaction model) (rat ficolin-A P59A (rat)): 6.8 nM
KD2 (apparent, two-complex, parallel reaction model) (rat ficolin-A P59A (rat)): 253 nM
kon of complex 2 (two-complex, parallel reaction model) (rat ficolin-A P59A (rat)): 42000 M⁻¹ s⁻¹
Substance: rat MASP-2A (catalytically inactive MBL-associated serine protease-2, Ser613 to Ala) (from UniProt Q9JJS8 20-685) (enzyme)
kon of complex 1 (two-complex, parallel reaction model) (rat ficolin-A M57S (rat)): 410000 M⁻¹ s⁻¹
kon of complex 1 (two-complex, parallel reaction model) (rat ficolin-A P59A (rat)): 1.13e+06 M⁻¹ s⁻¹
